Results as given in PMC3861672.

Target: Fps1 (UniProt P23900)
Test: BiFC, split CFP
Settings: reference: no sorbitol

- other: percent of cells with detectable fluorescence: stronger; reference 27.6
Substance: Hog1 (from UniProt P32485) 1 M sorbitol, 5 min
